According to US20190225665A1 (Stanford University, published 2019):
Changes are numbered by the printed parent chain.

T1: IFN-λR1 (human, UniProt Q8IU57 21-228, limits assumed)
T1 construct: Soluble receptor expressed in Hi5 insect cells; It was captured on a Biotin CAP chip for SPR and used as streptavidin tetramers or soluble protein in the yeast assays; For crystallography it was expressed in HEK293 GnTI- cells and deglycosylated with EndoF and EndoH; also called IL-28RA; IFNλ Receptor 1
T1 sequence (looked up): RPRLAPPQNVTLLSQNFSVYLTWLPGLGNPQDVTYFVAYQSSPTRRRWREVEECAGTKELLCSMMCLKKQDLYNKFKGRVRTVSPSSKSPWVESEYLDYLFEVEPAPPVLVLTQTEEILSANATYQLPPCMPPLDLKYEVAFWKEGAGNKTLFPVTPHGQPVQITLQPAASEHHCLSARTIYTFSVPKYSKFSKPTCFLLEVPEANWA

T2: heterodimeric receptor composed of IL-10Rβ and IFN-λR1 (on cells) (human, UniProt Q8IU57 21-520; Q08334 20-325)
T2 sequence (looked up) 1: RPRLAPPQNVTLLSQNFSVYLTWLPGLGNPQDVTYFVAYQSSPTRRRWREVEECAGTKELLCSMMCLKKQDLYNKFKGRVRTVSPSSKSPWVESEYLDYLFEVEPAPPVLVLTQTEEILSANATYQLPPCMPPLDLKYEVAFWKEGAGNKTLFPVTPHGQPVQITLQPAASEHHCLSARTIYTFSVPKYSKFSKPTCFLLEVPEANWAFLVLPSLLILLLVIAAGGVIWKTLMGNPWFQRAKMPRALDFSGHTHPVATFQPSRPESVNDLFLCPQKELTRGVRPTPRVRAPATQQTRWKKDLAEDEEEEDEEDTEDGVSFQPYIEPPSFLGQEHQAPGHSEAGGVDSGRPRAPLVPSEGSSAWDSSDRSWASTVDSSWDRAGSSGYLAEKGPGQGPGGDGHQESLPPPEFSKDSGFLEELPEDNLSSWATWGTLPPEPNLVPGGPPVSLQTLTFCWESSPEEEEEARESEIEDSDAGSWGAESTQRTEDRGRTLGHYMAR
T2 sequence (looked up) 2: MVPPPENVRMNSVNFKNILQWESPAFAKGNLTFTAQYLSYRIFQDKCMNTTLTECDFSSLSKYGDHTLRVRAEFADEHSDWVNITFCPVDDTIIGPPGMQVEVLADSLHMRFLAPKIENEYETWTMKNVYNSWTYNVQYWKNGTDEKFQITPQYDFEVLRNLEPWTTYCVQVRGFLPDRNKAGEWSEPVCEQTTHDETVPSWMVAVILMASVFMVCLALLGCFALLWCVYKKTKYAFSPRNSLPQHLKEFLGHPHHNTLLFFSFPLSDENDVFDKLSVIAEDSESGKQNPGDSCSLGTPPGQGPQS

T3: H11/IFN-λR1 binary complex (human, UniProt Q8IU57 21-228, limits assumed)
T3 construct: Complex of m2 and m3, immobilized for SPR; also called IFN-λ3 H11/IFN-λR1 binary complex; H11-containing binary complex
T3 sequence 1: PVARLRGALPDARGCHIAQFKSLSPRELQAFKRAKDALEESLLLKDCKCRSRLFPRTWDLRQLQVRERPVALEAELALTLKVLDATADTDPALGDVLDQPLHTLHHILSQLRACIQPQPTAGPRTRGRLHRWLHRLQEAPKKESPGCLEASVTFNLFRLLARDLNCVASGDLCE
T3 sequence 2: T1 sequence (looked up)

T4: wild-type IFN-λ3/IFN-λR1 binary complex (human, UniProt Q8IU57 21-228, limits assumed)
T4 construct: Complex of m1 and m3; In SPR it was the immobilized binary complex; also called IFN-λ/IFN-λR1 binary complex; wild-type IFN-λR1/IFN-λ3
T4 sequence 1: T3 sequence 1 with R26Q, D84E, R131H, A161T, E174V
T4 sequence 2: T1 sequence (looked up)

T5: IFNλR1/IFNAR1 receptor dimer (on Hap1 cells) (UniProt Q8IU57 21-520; P17181 28-557, limits assumed)
T5 sequence (looked up) 1: T2 sequence (looked up) 1
T5 sequence (looked up) 2: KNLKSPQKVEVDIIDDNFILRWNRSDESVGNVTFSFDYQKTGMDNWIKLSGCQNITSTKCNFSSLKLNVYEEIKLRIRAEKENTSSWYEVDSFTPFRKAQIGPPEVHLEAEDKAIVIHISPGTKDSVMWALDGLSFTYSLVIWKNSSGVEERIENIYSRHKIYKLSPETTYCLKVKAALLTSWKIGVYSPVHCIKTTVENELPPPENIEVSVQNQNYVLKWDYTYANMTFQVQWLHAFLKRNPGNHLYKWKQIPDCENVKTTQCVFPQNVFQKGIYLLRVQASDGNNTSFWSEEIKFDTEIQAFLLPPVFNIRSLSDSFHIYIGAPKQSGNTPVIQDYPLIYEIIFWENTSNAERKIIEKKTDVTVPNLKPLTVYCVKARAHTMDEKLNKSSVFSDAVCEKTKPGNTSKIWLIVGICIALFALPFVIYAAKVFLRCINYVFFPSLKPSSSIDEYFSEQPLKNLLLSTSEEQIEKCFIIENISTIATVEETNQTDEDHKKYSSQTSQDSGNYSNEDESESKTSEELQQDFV

B1: wild-type IFN-λ3 (ligand)
chain: T3 sequence 1 with R26Q, D84E, R131H, A161T, E174V
notes: For SPR it was expressed in Hi5 insect cells; also called IL-28B; IFN-λ3 wt
B2: IFN-λ3 H11 (ligand)
chain: T3 sequence 1
notes: also called engineered IFN-λ3 H11
B3: IL-10Rβ (monomer) (receptor, human, UniProt Q08334 20-220, looked up)
chain: MVPPPENVRMNSVNFKNILQWESPAFAKGNLTFTAQYLSYRIFQDKCMNTTLTECDFSSLSKYGDHTLRVRAEFADEHSDWVNITFCPVDDTIIGPPGMQVEVLADSLHMRFLAPKIENEYETWTMKNVYNSWTYNVQYWKNGTDEKFQITPQYDFEVLRNLEPWTTYCVQVRGFLPDRNKAGEWSEPVCEQTTHDETVPS
notes: Soluble receptor expressed in Hi5 insect cells; also called IL-10 Receptor Beta; IL-10R2
B4: Synthekine 2 (designed binder)
chain: ARGCHIAQFKSLSPAELQAFKRAKDALEESLLLKDCKCRSRLFPRTWDLRQLQVRERPVALEAELALTLKVLEATADTDPALGDVLDAPLATLHHILSQLRACIQPQPTAGPRTRGRLHRWLHRLQEAPKKESPGCLEASVTFNLFRLLARDLNCVASGDLCEGSGSGLGCDLPQNHGLLSANTLVLLHQMRRISPFLCAKDARDFRFPQEMVKGSQLQKAHVMSVLHEMLQQIFSLFHTERSSAAWNMTLLDQLHTGLHQQLQHLETCLLQVVGEGESAGAISSPALTLRRYFQGIRVYLKEKKYSDCAWEVVRMEIMASLFLSTNMQERLRSKDRDLGSSAAAHHHHHH

How the values were obtained:
[1] = biological target: T1, IFN-λR1; assay: SPR, equilibrium fit; wild-type IFN-λ3 binding IFN-λR1
Protocol: (§1) KD values were determined by fitting to a first order equilibrium binding model.
(§2) Surface plasmon resonance. GE Biacore T100 was used to measure the KD by either kinetic (type I IFNs) or equilibrium (type III IFNs) methods. Approximately 100 RU of each of the receptors of were captured on a Biotin CAP-chip (GE) including a reference channel of an unrelated cytokine receptor (IL-2Rβ).

[2] = biological target: T1, IFN-λR1; assay: yeast surface display titration with IFN-λR1, flow cytometry (FIG. 7B legend gives KD=400 nM)
[3] = biological target: B3; assay: flow cytometry of yeast displaying IFN-λ3, no IFN-λR1 present
Protocol: as §1
(§3) We used yeast surface display as a platform for engineering a higher affinity IFN-λ.

[4] = biological target: T6, IL-10Rβ streptavidin tetramers (human, UniProt Q08334 20-220; P22629 37-163); assay: as above
T6 construct: Same receptor as m4, multimerised on streptavidin for staining of yeast; also called avidity-enhanced tetrameric form of IL-10Rβ; IL-10Rβ tetramer
T6 sequence (P22629 37-163, one chain of several): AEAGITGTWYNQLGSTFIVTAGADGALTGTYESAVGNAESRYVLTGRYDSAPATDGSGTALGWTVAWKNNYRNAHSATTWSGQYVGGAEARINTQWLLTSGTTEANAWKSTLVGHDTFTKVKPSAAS
Protocol: as §1, §3

[5] = biological target: T2, heterodimeric receptor composed of …; assay: cell-based or functional assay
[6] = biological target: B3; assay: yeast-surface titration with IL-10Rβ (affinity maturation was done with soluble IFN-λR1 bound to the displayed cytokine); on-yeast titration, H11 displayed on yeast; presence of IFN-λR1 not stated for the titration
[7] = biological target: T1, IFN-λR1; assay: SPR, equilibrium fit
Protocol: as §1, §2

[8] = biological target: T1, IFN-λR1; assay: SPR, equilibrium fit; H11 (carries Thr150Ala) binding IFN-λR1
Protocol: as §1, §2

[9] = biological target: T3, H11/IFN-λR1 binary complex; assay: SPR, equilibrium fit, immobilized H11/IFN-λR1 binary complex; SPR; IL-10Rβ over the immobilized H11/IFN-λR1 binary complex
Protocol: as §1, §2

[10] = biological target: T4, wild-type IFN-λ3/IFN-λR1 binary complex; assay: surface plasmon resonance, equilibrium fit; binary complex on the sensor chip, IL-10Rβ as analyte up to 100 uM
Protocol: as §1, §2

[11] = biological target: T3, H11/IFN-λR1 binary complex; assay: SPR, equilibrium fit, immobilized binary complexes
Protocol: as §1, §2

[12] = biological target: T5, IFNλR1/IFNAR1 receptor dimer (on Hap1 …); assay: cell-based or functional assay

What does the source list for B1?
Kd [1]: 0.85 µM; Kd [2]: ~0.4 µM; binding result [3]: no binding; binding result [4]: no binding

With B2 as the binder, how does the “EC50 for phospho-Stat1 on Hap1 cells, fold improvement over wild-type IFN-λ3” value [5] read?
Its value is 100 fold.

What about the “anti-viral potency on Huh7.5 cells infected with HCV, fold over wild-type IFN-λ3” value [5] of the same binder?
The value was 12 fold.

And the Kd [6]?
The Kd was 0.2 µM.

What about the “fold higher affinity against wild-type IFN-λ3” value [7] of the same binder?
Its value is roughly 5 fold.

What about the Kd [8] of the same binder?
Its Kd is 0.15 µM.

B3 was tested. Which Kd [9] did it give?
Its Kd is 0.56 µM.

What about the Kd [10] of the same binder?
The Kd was 16 µM.

And the “fold increase in IL-10Rβ affinity against the wild-type IFN-λ3/IFN-λR1 binary complex” value [11]?
Its value is 30 fold.

For B4, which “Emax of phospho-STAT1 activation in Hap1 cells” value [12] is on record?
The value was 2 fold of the signal induced by type III IFNs.
